Source: PMC2270844, “Functional role of the additional domains in inulosucrase (IslA) from Leuconostoc citreum CW28” (BMC Biochemistry, 2008)

Substrate: OC[C@H]1O[C@@](CO)(O[C@H]2O[C@H](CO)[C@@H](O)[C@H](O)[C@H]2O)[C@@H](O)[C@@H]1O
Test: initial sucrose consumption rate, reducing sugar (DNS) assay, Michaelis-Menten fit
Type: biochemical, Leuconostoc citreum
Details: pH 6.5 phosphate 50 mM, 30°C, 1 mM CaCl2, total Km (hydrolysis plus transglycosylation)
Text: initial sucrose consumption rate, reducing sugar (DNS) assay, Michaelis-Menten fit on IslA2

B1: IslA2 (Leuconostoc citreum) (protein)
chain: DVNQPLLAQENFSGNKTEPVPDKSNKNESVKDSKVATSDELAKDSKVATSDELAKDSKVATSDELAKDSKVATSDELVKDSKVATSDELAKDSKVATSDELAKDSKVATSDELAKDSKVATSDELAKDSKVATSDELAKDSKAPTNDVSVRAEKKSSLIDSPELNVKMSEMTSVPNLISDENSKNLVNSNELINGLSKRSLEIAHQAGIDVSRLNDIQKAALNKIKLVNEDGNKYVLDNTGSDYTKNTIIDKNNPDDTTKTTHITFANLDDAIKLAQKPDPKTTIPVFNASQINNLPASIFKDAQTNKVEKMDVWDSWALQDSKTGEVYNYHGKQVVFALMGAPLVQGDTHIYMLYNNYNNAKLDGWVNAGPVFGYNAKPESQEWSGSAVVNSDDSIQLFYTRVADDWKQALATVNIKITNSENSLGIQSLQNDHILFEGDGYFYSRKDQLKPQADMFTLRDPKLIELDDGERYLTFEANTGIYDEASDQQTVNLNNYGGGLTYDVARMLGVVNNSNRALYSSTANGAIGLLKLKGDYFNPILDRLYKPLITAVGVTDEIERANIVPFNGKYYLFTDSRFNRSAADNSPMSMAPDGAMMMGFVSDSLFGDYKPLNGNGIVLVTNNSFTSRTNTYSWYTVPVKGRPDLMLVTSYMTNRGLASGTDQYSTFAPSFLLKIDGDQTHVLNTVTEQGDWVWGDDDHSIVELLALNTEDAYLTNNQKNINYSPDWSNIDGYGYPIVTNIKDVDLTFYISGILSPDSLFKNAPGRHQGARIIGSTSQYNTEKVSAIKEYTDDLNTIWYLVNLAGNNFWIKGSSLVTVPMTDSTFRNAYIVKDSDMYLDAPQGETNAKYYQSSNSYNDAYVIVGGEYKDAHGITWNLIKLNDKILWINKNSLAISFSRDLN
notes: C-terminal truncation, last 551 residues deleted; variable region, catalytic domain and transition region kept; 102 kDa plus 16 kDa N-terminal thioredoxin fusion, His tag; E. coli TOP10, pBAD/Thio TOPO, Ni-NTA
  Km: 24 mM
  kcat: 28.2 s⁻¹
  kcat/Km: 1170 M⁻¹ s⁻¹
